Target: extended E34 TSP (E34 phage tailspike protein with the N-terminal 43 amino acid fusion peptide) (E34 phage)
Assay: SDS-PAGE of unheated against unfolded samples

## extended E34 TSP (E34 phage tailspike protein with the N-terminal 43 amino acid fusion peptide) (natural protein)
  stoichiometry N: 3
